# Measured values reported in US20230057461A1 (US Dept. of Health and Human Services, published 2023).
# T1: Rab escort protein REP-1 (UniProt P24386 1-653)
# T1 construct: Endogenous protein detected by Western blot (Abcam cat# 134964)
# T1 sequence (looked up): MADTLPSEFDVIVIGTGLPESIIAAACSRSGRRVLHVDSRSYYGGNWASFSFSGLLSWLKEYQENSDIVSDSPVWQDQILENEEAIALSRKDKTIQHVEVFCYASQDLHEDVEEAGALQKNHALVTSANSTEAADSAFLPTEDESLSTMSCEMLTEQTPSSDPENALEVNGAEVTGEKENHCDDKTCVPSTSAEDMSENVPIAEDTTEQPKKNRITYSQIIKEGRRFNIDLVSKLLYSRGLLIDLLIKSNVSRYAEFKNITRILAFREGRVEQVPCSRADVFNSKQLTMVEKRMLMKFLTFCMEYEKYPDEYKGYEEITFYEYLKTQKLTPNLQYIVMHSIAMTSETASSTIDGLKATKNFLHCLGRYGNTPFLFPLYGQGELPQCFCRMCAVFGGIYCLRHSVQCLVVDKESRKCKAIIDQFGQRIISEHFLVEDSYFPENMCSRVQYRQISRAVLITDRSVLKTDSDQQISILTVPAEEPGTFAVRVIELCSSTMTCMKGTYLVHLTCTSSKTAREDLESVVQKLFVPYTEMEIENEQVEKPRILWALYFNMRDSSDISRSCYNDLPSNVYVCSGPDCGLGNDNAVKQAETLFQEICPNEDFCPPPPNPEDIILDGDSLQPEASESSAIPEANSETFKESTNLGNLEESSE
# B1: GFP-Rab13 (N-terminally GFP-tagged human Rab13) (other, UniProt P51153 1-203, looked up, not shown: large carriers)
# chain: MAKAYDHLFKLLLIGDSGVGKTCLIIRFAEDNFNNTYISTIGIDFKIRTVDIEGKKIKLQVWDTAGQERFKTITTAYYRGAMGIILVYDITDEKSFENIQNWMKSIKENASAGVERLLLGNKCDMEAKRKVQKEQADKLAREHGIRFFETSAKSSMNVDEAFSSLARDILLKSGGRRSGNGNKPPSTDLKTCDKKNTNKCSLG
# notes: Stably expressed in MDA-MB-231 cells from constructs with the wild type or the delta-PMO Rab13 3'UTR; the encoded protein is the same; Assayed from cell lysates; also called exogenous GFP-Rab13; exogenous Rab13
# Target: T1, Rab escort protein REP-1
# Assay: co-immunoprecipitation of GFP-Rab13 with GFP-Trap beads from MDA-MB-231 lysates, Western blot
# Method: For immunoprecipitations, cells were lysed with a buffer containing 50mM Tris pH 7.4, 1% NP-40, 150mM NaCl, 10mM MgC12, 10% glycerol and a cocktail of protease and phosphatase inhibitors (Thermo Fischer Scientific, cat# 1861281). Lysates were cleared by centrifugation and mixed with GFP-Trap Magnetic Agarose beads (Chromotek, cat# gtma-10) for 1.5 h, at 4° C. Immobilized complexes were eluted with Laemmli's buffer and analyzed by SDS-PAGE and immunoblotting.
binder,measurement,value
B1,binding result,binds
